T1: full-length human SIRPγ EN→DD on Expi-CHO cells (human, UniProt Q9P1W8 29-387)
T1 construct: the entry already carries the change (PENV to PDDV)
T1 chain: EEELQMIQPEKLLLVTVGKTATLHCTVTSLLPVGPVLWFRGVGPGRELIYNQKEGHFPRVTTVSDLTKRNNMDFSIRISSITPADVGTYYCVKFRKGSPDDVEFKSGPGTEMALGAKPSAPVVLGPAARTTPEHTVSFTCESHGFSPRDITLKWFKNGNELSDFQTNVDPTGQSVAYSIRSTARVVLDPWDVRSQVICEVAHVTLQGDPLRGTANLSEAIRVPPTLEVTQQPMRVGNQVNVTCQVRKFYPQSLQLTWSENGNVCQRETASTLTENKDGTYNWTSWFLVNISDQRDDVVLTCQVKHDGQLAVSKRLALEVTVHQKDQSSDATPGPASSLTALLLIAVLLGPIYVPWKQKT

T2: cynomolgus SIRPγ (XP_005568591) extracellular domain + His-tag (cynomolgus monkey, UniProt Q9P1W8 29-359 (human entry))
T2 construct: SPR analyte; also called Cyno SIRPγ XP_005568591; cynoSIRPγ; not shown: His-tag
T2 chain: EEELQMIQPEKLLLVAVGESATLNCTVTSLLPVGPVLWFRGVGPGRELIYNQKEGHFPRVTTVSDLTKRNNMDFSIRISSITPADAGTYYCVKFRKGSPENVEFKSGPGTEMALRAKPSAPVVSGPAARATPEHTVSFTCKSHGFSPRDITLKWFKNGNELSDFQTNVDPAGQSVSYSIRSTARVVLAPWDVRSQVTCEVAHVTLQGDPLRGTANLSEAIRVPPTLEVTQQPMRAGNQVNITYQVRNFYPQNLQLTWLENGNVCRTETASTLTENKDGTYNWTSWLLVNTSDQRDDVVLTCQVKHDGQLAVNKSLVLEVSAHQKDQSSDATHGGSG

T3: cynomolgus SIRPβ1 (XP_005568598) extracellular domain + His-tag (cynomolgus monkey)
T3 construct: SPR analyte; also called Cyno SIRPβ1 XP_005568598; cynoSIRPβ1; not shown: His-tag
T3 chain: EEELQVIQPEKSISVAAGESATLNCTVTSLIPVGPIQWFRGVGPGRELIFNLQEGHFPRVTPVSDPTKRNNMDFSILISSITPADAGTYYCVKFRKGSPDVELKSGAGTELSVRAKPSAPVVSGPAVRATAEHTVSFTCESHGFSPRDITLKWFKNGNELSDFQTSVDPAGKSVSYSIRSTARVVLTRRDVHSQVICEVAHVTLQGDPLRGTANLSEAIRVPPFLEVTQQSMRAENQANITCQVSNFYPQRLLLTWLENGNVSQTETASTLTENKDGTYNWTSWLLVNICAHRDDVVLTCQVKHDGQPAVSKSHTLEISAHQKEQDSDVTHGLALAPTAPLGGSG


Key:
[1] = target: T1, full-length human SIRPγ EN→DD on …; test: flow cytometry, Expi-CHO cells expressing full-length human SIRPγ EN→DD
Description: (§1) Expi-CHO parental cells are transduced with lentiviruses containing either full-length wild-type human SIRPγ ([…]) or full-length human SIRPγ with amino acid point mutations (Table 64) and sorted to achieve matching expression levels. These cells are blocked with donkey IgG and incubated on ice with increasing concentrations of antibodies for 60 minutes, washed and stained with AF647-conjugated donkey F(ab′)₂ anti-human IgG antibodies. Stained cells are washed, fixed, and analyzed by flow cytometry. Median fluorescent intensity is determined and used as a measure of antibody binding.

[2] = target: T2, cynomolgus SIRPγ (XP_005568591) …; test: SPR
Outline: (§2)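 SPR; Ab capture surface, ethanolamine-deactivated (1M, 420 s, 10 μl/min). Analyte: SIRP ECD+His, 2-fold dilution series in 1×HBS-EP+. Inject 300 s @ 30 μl/min; dissoc. 600 s.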

[3] = target: T3, cynomolgus SIRPβ1 (XP_005568598) …; test: SPR
Outline: as §2

[4] = target: T4, full-length human SIRPγ N→D on Expi-CHO cells (human, UniProt Q9P1W8 29-387); test: flow cytometry, Expi-CHO cells expressing full-length human SIRPγ N→D
T4 construct: the entry already carries the change (PENV to PEDV)
Description: as §1

[5] = target: T5, full-length human SIRPβL (NP_001129316.1) on cells (human, UniProt Q5TFQ8 30-398); test: flow cytometry, Expi-CHO cells
T5 construct: one molecule for U937 SIRPα-KO transfectants (NP_001129316.1) and Expi-CHO transfectants (Q5TFQ8); also called SIRPβ1v3; βL WT
Description: Expi-CHO parental cells are transduced with lentiviruses containing either full-length wild-type human SIRPβL (Q5TFQ8) or full-length human SIRPβL with a single amino acid point mutation (Table 62) and sorted to achieve matching expression levels. These cells are blocked with donkey IgG and incubated on ice with increasing concentrations of antibodies for 60 minutes, washed and stained with AF647-conjugated donkey F(ab′)₂ anti-human IgG antibodies. Stained cells are washed, fixed, and analyzed by flow cytometry. Median fluorescent intensity is determined and used as a measure of antibody binding.
A single amino acid substitution (H→D) introduced within the loop region maintained, strengthened, or facilitated antibody binding to these cells (FIG. 34B, Table 63).

[6] = target: T6, full-length human SIRPγ (NP_061026.2) on cells (human, UniProt Q9P1W8 29-387); test: flow cytometry, Expi-CHO cells expressing full-length wild-type human SIRPγ
T6 construct: also called CHO-hSIRPγ; γ WT
Description: […] These cells are blocked with donkey IgG and incubated on ice with increasing concentrations of antibodies for 60 minutes, washed and stained with AF647-conjugated donkey F(ab′)₂ anti-human IgG antibodies. Stained cells are washed, fixed, and analyzed by flow cytometry. Median fluorescent intensity is determined and used as a measure of antibody binding.

[7] = target: full-length human SIRPβ1 D→H on Expi-CHO cells (human, UniProt O00241 30-398); test: flow cytometry, Expi-CHO cells
Description: These cells are blocked with donkey IgG and incubated on ice with increasing concentrations of antibodies for 60 minutes, washed and stained with AF647-conjugated donkey F(ab′)₂ anti-human IgG antibodies. Stained cells are washed, fixed, and analyzed by flow cytometry. Median fluorescent intensity is determined and used as a measure of antibody binding.

[8] = target: T7, human SIRPβL/SIRPβ1v3 extracellular domain + His-tag (NP_001129316.1) (human, UniProt Q5TFQ8 30-371); test: SPR, Ab captured, ECD-His analyte
T7 construct: also called hSIRPβ1v3; HuSIRPβ1v3
Outline: as §2

T5 sequence (Q5TFQ8 30-398): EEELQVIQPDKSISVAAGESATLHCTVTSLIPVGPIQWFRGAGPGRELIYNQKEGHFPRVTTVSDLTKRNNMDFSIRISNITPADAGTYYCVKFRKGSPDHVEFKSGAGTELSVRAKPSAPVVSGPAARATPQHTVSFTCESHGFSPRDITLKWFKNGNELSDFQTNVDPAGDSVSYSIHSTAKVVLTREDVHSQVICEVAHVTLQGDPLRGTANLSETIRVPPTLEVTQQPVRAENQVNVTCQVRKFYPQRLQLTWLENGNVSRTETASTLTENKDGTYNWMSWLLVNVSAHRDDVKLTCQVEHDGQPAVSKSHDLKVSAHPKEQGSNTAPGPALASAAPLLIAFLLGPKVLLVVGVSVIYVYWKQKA
Sequence of full-length human SIRPβ1 D→H on Expi-CHO cells (O00241 30-398 D130H): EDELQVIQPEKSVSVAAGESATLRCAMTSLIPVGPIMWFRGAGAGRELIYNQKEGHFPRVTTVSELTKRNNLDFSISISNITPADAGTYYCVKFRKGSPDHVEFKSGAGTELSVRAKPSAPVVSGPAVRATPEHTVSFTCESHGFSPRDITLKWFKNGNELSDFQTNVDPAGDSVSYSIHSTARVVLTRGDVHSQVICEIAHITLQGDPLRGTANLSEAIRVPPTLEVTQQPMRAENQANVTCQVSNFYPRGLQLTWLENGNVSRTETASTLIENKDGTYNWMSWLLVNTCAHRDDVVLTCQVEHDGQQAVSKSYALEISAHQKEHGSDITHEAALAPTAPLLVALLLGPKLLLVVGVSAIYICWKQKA
T4 sequence (Q9P1W8 29-387 N129D): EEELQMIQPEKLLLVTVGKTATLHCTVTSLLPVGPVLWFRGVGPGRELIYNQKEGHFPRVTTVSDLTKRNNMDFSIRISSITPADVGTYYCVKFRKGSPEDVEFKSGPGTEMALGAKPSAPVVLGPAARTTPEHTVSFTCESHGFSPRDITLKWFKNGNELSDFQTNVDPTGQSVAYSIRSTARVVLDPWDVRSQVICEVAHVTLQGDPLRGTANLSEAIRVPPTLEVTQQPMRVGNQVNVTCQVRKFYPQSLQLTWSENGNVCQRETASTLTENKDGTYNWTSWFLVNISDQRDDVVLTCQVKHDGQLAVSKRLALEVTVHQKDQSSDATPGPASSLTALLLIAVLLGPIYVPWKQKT
T7 sequence (Q5TFQ8 other isoform, or with tags, fused parts or gaps): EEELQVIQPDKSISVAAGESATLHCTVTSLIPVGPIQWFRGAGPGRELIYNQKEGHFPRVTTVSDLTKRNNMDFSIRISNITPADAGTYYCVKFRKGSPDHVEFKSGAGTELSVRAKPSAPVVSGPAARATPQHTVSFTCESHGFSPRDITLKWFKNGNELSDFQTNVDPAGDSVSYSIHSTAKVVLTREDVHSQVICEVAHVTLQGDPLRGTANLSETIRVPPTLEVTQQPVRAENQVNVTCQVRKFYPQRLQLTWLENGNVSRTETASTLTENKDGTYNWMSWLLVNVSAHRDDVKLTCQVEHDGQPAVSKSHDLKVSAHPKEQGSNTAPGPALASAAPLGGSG
T6 sequence (Q9P1W8 29-387): as the sequence (Q9P1W8 29-387 N129D) above, with D101N counted along it

| Binder | binding result [1] | binding result [2] | binding result [3] | binding result [4] | EC50 [5] [nM] | binding result [6] | binding result [7] | binding result [8] |
| --- | --- | --- | --- | --- | --- | --- | --- | --- |
| Antibody E (antibody, human IgG1, kappa, L234A L235A) heavy: not shown light: DIVMTQSPLSLPVTPGEPASISCKSSQSLLYSNGYNYLDWYLQRPGQSPQLLIYLGSNRASGVPDRFSGSGSGTDFTLKISRVEAEDVGVFYCMQALQTPLTFGGGTKVEIKRTVAAPSVFIFPPSDEQLKSGTASVVCLLNNFYPREAKVQWKVDNALQSGNSQESVTEQDSKDSTYSLSSTLTLSKADYEKHKVYACEVTHQGLSSPVTKSFNRGEC | no binding (tested: about 67 nM) | no binding (tested: 1000 nM) | no binding (tested: 1000 nM) | no binding (tested: about 67 nM) | 1 |  |  |  |
| Anti-SIRPα antibody KWAR23 (antibody, V domains shown) VH: EVQLQQSGAELVKPGASVKLSCTASGFNIKDYYIHWVQQRTEQGLEWIGRIDPEDGETKYAPKFQDKATITADTSSNTAYLHLSSLTSEDTAVYYCARWGAYWGQGTLVTVSS VL: QIVLTQSPAIMSASPGEKVTLTCSASSSVSSSYLYWYQQKPGSSPKLWIYSTSNLASGVPARFSGSGSGTSYSLTISSMEAEDAASYFCHQWSSYPRTFGAGTKLELK |  |  |  |  | 1 |  |  |  |
| Antibody A (antibody, human IgG1, kappa, L234A L235A) heavy: not shown light: DIQMTQSPSSLSASVGDRVTITCRASQDINNYLAWFQQKPGKAPKSLIYTASSLHSGVPSKFSGSGSGTDFTLTISSLQPEDFATYYCQQYVSYPYTFGQGTKLEIKRTVAAPSVFIFPPSDEQLKSGTASVVCLLNNFYPREAKVQWKVDNALQSGNSQESVTEQDSKDSTYSLSSTLTLSKADYEKHKVYACEVTHQGLSSPVTKSFNRGEC |  |  |  |  |  |  | no binding | no binding (tested: 100 nM) |
| Antibody A10 (antibody, human IgG1, kappa, L234A L235A) heavy: not shown light: DIQMTQSPSSLSASVGDRVTITCRASQDINNYLAWFQQKPGKAPKSLIYTASSLHSGVPSKFSGSGSGTDFTLTISSLQPEDFATYYCQQYVSYPYTFGQGTKLEIKRTVAAPSVFIFPPSDEQLKSGTASVVCLLNNFYPREAKVQWKVDNALQSGNSQESVTEQDSKDSTYSLSSTLTLSKADYEKHKVYACEVTHQGLSSPVTKSFNRGEC [Antibody A10, listing 2 of 2 here] |  |  |  |  |  |  | no binding | no binding (tested: 100 nM) |

The remaining lines, values ahead:

| binding result [1] | binding result [2] | binding result [3] | binding result [4] | EC50 [5] [nM] | binding result [6] | binding result [7] | binding result [8] | Binder |
| --- | --- | --- | --- | --- | --- | --- | --- | --- |
| no binding (tested: about 67 nM) | no binding (tested: 1000 nM) | no binding (tested: 1000 nM) | no binding (tested: about 67 nM) | 1.2 | no binding (tested: about 67 nM) |  |  | Antibody E22 (antibody, human IgG1, kappa, L234A L235A, V domains shown) VH: QVQLQESGPGLVKPSETLSLTCTVSGGSIRDYYWSWIRQPPGKGLEWIGFIYYNGRTFYQSSLKSRVTISLDTSKNQFSLKMTSVTAADTAVYYCARVRAYSGIGLDGTDVWGQGTTVTVSS VL: DIVMTQSPLSLPVTPGEPASISCRSSQSLLYSTGYTYLDWYLQRPGQSPQLLIYGGSSRASGVPDRFSGSGSGTDFTLKISRVEAEDVGVFYCGQALQTPLTFGQGTKVEIKR |
|  |  |  |  |  | no binding (tested: about 67 nM) |  |  | Antibody A10 (antibody, human IgG1, kappa, L234A L235A) heavy: not shown light: DIQMTQSPSSLSASVGDRVTITCRASQDINNYLAWFQQKPGKAPKSLIYTASSLHSGVPSKFSGSGSGTDFTLTISSLQPEDFATYYCQQYVSYPYTFGQGTKLEIKRTVAAPSVFIFPPSDEQLKSGTASVVCLLNNFYPREAKVQWKVDNALQSGNSQESVTEQDSKDSTYSLSSTLTLSKADYEKHKVYACEVTHQGLSSPVTKSFNRGEC [Antibody A10, listing 1 of 2 here] |

— US20230012273A1 (Boehringer Ingelheim, published 2023)
